Measurements as given in patent US20230279491A1, “TREATMENTS FOR A SUB-POPULATION OF INFLAMMATORY BOWEL DISEASE PATIENTS” (CEDARS-SINAI MEDICAL CENTER, priority 2020, published 2023).

Test system: T-cells
Assay: TL1A treatment of T-cells (IL12+IL18, TL1A+IL12+IL18, untreated): miR-155, INFG and IL22 expression
Format: cell-based
Text: T-cells were divided into 3 treatment groups: cells treated with IL12+IL18, cells treated with TL1A+IL12+IL18, and untreated cells (ut), as depicted in FIG. 13A.

[1] = TL1A+IL12+IL18 compared to no treatment or only IL12 and L18 treatment
[2] = treatment with TL1A (TL1A+IL12+IL18)

B1: TL1A: TNF Superfamily Member 15 (TL1A), cytokine encoded by TNFSF15, used to treat T-cells (protein)
chain: MAEDLGLSFGETASVEMLPEHGSCRPKARSSSARWALTCCLVLLPFLAGLTTYLLVSQLRAQGEACVQFQALKGQEFAPSHQQVYAPLRADGDKPRAHLTVVRQTPTQHFKNQFPALHWEHELGLAFTKNRMNYTNKFLLIPESGDYFIYSQVTFRGMTSECSEIRQAGRPNKPDSITVVITKVTDSYPEPTQLLMGTKSVCEVGSNWFQPIYLGAMFSLQEGDKLMVNVSDISLVDYTKEDKTFFGAFLL
FIG. 13B
  miR-155 expression: upregulation
[1]
  miR-155 3p: upregulation
  miR-155 5p: upregulation
Cells treated with TL1A (TL1A+IL12+IL18)
  IL22 mRNA: increased
[2]
  INFG secretion: increase
  levels of INFG mRNA: increase
